From the domain aggregation screens of Martell et al. (2025)

Test: soluble fraction after stress (log2 fold change); higher = more stays soluble; pooled small domains, quantitative proteomics
Conditions: stress: 75 degC
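Note: 20 min heating vs room temperature control held 20 min.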

Sequence	soluble fraction (log2)
HMDDAIAEKTGGAVSSVNQRQAILDHIREAYGIELESLRSTDIERYLDDPEIPEPVKDILRDRLRGAK	0.204
HMDDDAELLLKKLSAAGGELPFHDRSEPAEIEAAFGLSKSAFKRALGKLLKAGKVVKTQQGIQLK	0.162
HMDDDIKNALDVLPEQYRMTVYYADVEGLAYKEIGAIMNTPIGTVMSRIHRGRSQLRVLLAAVAADR	0.316
HMDDFITLVIHTPAHAQNLRNILESHGMEVRLEDFVSFKSPVAVAQRVKIRPKDLPLALKIIESGE	0.19
HMDDFVEIDGKKYEIDMSFDNILRLFDLLKDKSLNDVTKIETGLIMLIDDSLDDYDTEEKADIFVQIF	-0.411
HMDDGALQIRLGPQALQQRLDKLGYSLNKEDLDLVYQYFLHSADSKGAVYDQELRELMGEAGVE	-0.102
HMDDIHTFVYETETPFDPQKLDRYIGSLTAVYGQDMLRYKGILYFAGVDRRVVFQGVHMLAV	-0.0939
HMDDILAYEIEDKEDLENLSLGKSIGINLNKLIKPTLNSFDNSLLFLSKKGNIISYGKLNGDLFKPKKVL	0.346
HMDDINVSNSKNIVPNVTGHTGSKAIPVLENLGLDVQYSGFGKVTNQSIPAGTRFKKGETIYLMLE	0.03
HMDDIVFPNPTKNQINVSIDGLKNIYNLSGKLLISTNDKIIDVSILKAGVYFINTNEQFYKFVK	-1.41
HMDDIVPHSTKNHIIKTFLSLMNSLDIITDKNKKSLNQNVHIIFNKFNFSKKEANLFIGVLNRIQKALK	0.602
HMDDLFGNAIEMFNNQRYDMTYELLVQLLSETPNNEKAWQLLADTKFMLGDYDDALHIVGKAAK	-1.05
HMDDPWHNLANAIVAVAADDYRSALRNEDEGLLKSLELFFHSEWYRILTDVDADRLLGMLRRERS	-1.71
HMDDTPLNNVIKKIAALPENITLADKSAVLSAWEAYQALSVNLKAQVSNSELLIKAYETILQLEGEDQIK	0.437
HMDDYRIEDMMTVVEEQVIRQKETNLSWFFKRAGSLNEIITIFLAALELIKVHRVYVKQEHNFDDIILRKE	0.305
HMDEAAGVLTQLRAFIAASNLSPGLRLPPERELAEQLGVTRAELRKALAVLEAEGLLWRQVGKGTFYGARP	-1.35
HMDEAEELYQAVQALKPKYREVILLHYYQGLRVGEIAAILRAPQSTVSIRLRRARQMLNRMLG	-0.701
HMDEALLRATLLDVLVKHHPKIGDKLDVVFALAKAWVSSGSDDDFEVLEKYMERLKPDEALMLASGFSNML	-0.886
HMDEDTWKLYKRAYKKYYARYMKGNMSEAAFKAWGEQAAADRDAAIEQLRATTDAALSASIIQQLKEKLNR	-0.995
HMDEEDVLNELIRRLALTADDRLLLSLSYEDGLSSRKIATLLETSAATVQRRLAGLHHQLEQALRVMGLA	-0.323
HMDEEGDALDREYEDQIRLGDEAFDAEDWTSAQRAYTAALELRPDERYPKNRLRRLASLQEDV	0.245
HMDEETVALQKAIHSLPPKQQAVFNMRYYDEMSFREIADANETTESSAKANYHFAKAKIIEQMKR	0.113
HMDEILHHPSYRAIYEYMLDHKHVKTKDIAALLNVKEPRARQLLKEMIDKHFIIALGSNRNREYELL	-0.94
HMDEKSGWLHLAPHEGALRAALYAEHAVQEERTAPDGSQWLRLVLREKHYHQIQSKYNRRLTLHTQPDPS	-2.58
HMDENDPYEILEIDRLASDDQVKAKYRALIRENHPDVLMAKGVPQEFIDLANRKMAVINAAYDRIEKEREF	0.122

Sequence	soluble fraction (log2)
HMDEPGAGYKWREDVLLRVMASHGIEESLRDDFVRHAVGFDNDDNMYLKKVEIENAAAAWVAN	-0.359
HMDETELLLQKAIATLPDKQRVVFNLKYFDEMKYEEMSELLETSVGALKASYHLAVKKIEQFFHDA	-0.555
HMDETYRRQLEDLAREHGAEYLHGILREVDPASAEAIHANNIKRVIRALEFYHLSGKKISEHNETERQ	-0.12
HMDEVHYLADKERGTTWEEILIHADRDIKFLSLSATINNKNEFLEWLVSLRGTTSLIHSSTRPIPLEI	0.231
HMDEVLDQFVRGQIYGYIRANPGDIYSSIRDNLGLKNGVTTYHLDVLAREEYVYSEIDGTNRRFYPSGWEE	-2.77
HMDEVVVVERGGVQITMSEIDAKIMELPVDVRPSYLDSPERLQNFVSNLLLEKQAAQLKSQY	-0.142
HMDEWDPAILYVGLDYEDAAQIATRLATSGVPYRLSPDGTMITVPDDQVNNMRLTLAGEGFPH	-0.0325
HMDEYFNPETVVHYLRELFDTYRENGGNPFEWFHSTFESVNLNPQNYRKDLITTIEKALIEWIEIFEKQ	-0.697
HMDFDPDVPSREDILQAFRDSKPPLTVNALISEFGLSRDASIVGLERRMGAMQRDGQLEQTPSGWQLSV	-0.164
HMDFFVLVGAYKTPDEAETIRAKIAFSGLDSSVSHGNDGRYRVRIGPFHSEGDARKAQSTLRANDIPGQII	-1.01
HMDFGMPEELQKKLDKMPALKAAFEALTPGRQRGYIFYFSQPKQSKTRELRIEKSIEQIMNGKGLND	-0.414
HMDFIEYIISEESKGLRADQAISMENDKFSRSLIQKWIKKGRVLVNGRKIKPKDIVNLNDKITINPEESIN	-0.36
HMDFITPYEIEQGQYEGAELYEDGKFEEAFSLSSIAAQRGMKTAQYLLGIMFLKGEYVDQSLAIGMAW	-0.52
HMDFPYISGIEIAAIKNREFIRIETDKAQEIAIALDKSGIPFSARFSDAEMVLTYDGSYKEQVEDIIAKA	-0.705
HMDFSERLARAMSLAGYTQGRLAKEVGMAQSSVNKLLNGANGSRKTVEIASVLGVRPEWLSTGAGEML	-0.546
HMDFSSRLKDERKRLKLSQAQLGEAGGVSKDAQLNYENGSRSPSASYLELIAREGVDVQFLLTGKRS	0.155
HMDFSYTVGDIDEPIDSRGNSVIMLRKLAWGSNAEKLEIRRWIIDIDSERANKGVTFLTEEGPHNLVRV	0.272
HMDFTISDADFHRLVQFIQQNYGVALSKKRQLISSRLSHSLRELGYKDFRTFLEHLFSTRDPADLELVLNK	-1.59
HMDFYVILGVDRAASLSDVKRAYRRLARKHHPDINPGDPESDAFFMRVTEAYETLVDPDRRQEYDEHG	-0.75
HMDGEFINLKNRAGTEIEARILNYQNGQVKLERKDGVTFVVSISMFDAKSVIAINHKIAEIIDT	-2.28
HMDGIDALEPLMRRVFEALPQRRSMTIERAAVAAGLDEESVKIALVRLQLEGYVANDERGWHRSKSPH	-2.48
HMDGIGLRVRMIREGVGLTQKQLAEHLGMQRTALVQVEAGSRKLSASELIGVARFFNITVEQFLDPEK	-3.5
HMDGIPVPDVKGTVEAEATATLKNSGFEVTKTQDFSDTVEAGKVISQNPAGGSSAASGSSVTLVISQGPN	-0.0786
HMDGISANAVKALIESLIAGEDKRKPLSDQAMSDRLALQGIVLARRTVAKYREELNFPPAHQRKQK	-1.41
HMDGLPYPEAAEEPIAQVARNLGMDATRVSIALQEAKLIFRNLDETLAEIAANNGTTPQVVYDAIRHLEPP	-0.248
